In article PMC3167817:
pKd: −log10 of the molar value.

Experiments:
[1] = molecular target: EGFR on A549 cells (endogenous) (human) (UniProt P00533); assay: cell binding, radiolabeled aptamer; conditions: A549 cells; binding decreased by EGFR shRNA and 1 uM EGF; 2'-fluoro pyrimidines; Filter binding: 1 nM radiolabeled RNA, PBS + 0.01% BSA, 15 min, 37 C (5 mM DTT for monomer); CL4sc background subtracted; pull-down: 200 nM aptamer on A549 …
[2] = molecular target: EGFR on NIH/EGFR cells (human) (UniProt P00533); assay: cell binding, radiolabeled aptamer; conditions: apparent Kd; parental NIH3T3 not bound; 2'-fluoro pyrimidines; Filter binding: 1 nM radiolabeled RNA, PBS + 0.01% BSA, 15 min, 37 C (5 mM DTT for monomer); CL4sc background subtracted; pull-down: 200 nM aptamer on A549 …

“GCCUUAGUAACGUGCUUUGAUGUCGAUUCGACAGGAGGC [CL4]” was tested. Which pKd [1] did it give?
Its pKd is 7.42.

What about the pKd [2] of the same sequence?
The pKd was 7.22.
